Molecular target: Flag-TSC2 (UniProt P49815)
Sequence (P49815 whole entry): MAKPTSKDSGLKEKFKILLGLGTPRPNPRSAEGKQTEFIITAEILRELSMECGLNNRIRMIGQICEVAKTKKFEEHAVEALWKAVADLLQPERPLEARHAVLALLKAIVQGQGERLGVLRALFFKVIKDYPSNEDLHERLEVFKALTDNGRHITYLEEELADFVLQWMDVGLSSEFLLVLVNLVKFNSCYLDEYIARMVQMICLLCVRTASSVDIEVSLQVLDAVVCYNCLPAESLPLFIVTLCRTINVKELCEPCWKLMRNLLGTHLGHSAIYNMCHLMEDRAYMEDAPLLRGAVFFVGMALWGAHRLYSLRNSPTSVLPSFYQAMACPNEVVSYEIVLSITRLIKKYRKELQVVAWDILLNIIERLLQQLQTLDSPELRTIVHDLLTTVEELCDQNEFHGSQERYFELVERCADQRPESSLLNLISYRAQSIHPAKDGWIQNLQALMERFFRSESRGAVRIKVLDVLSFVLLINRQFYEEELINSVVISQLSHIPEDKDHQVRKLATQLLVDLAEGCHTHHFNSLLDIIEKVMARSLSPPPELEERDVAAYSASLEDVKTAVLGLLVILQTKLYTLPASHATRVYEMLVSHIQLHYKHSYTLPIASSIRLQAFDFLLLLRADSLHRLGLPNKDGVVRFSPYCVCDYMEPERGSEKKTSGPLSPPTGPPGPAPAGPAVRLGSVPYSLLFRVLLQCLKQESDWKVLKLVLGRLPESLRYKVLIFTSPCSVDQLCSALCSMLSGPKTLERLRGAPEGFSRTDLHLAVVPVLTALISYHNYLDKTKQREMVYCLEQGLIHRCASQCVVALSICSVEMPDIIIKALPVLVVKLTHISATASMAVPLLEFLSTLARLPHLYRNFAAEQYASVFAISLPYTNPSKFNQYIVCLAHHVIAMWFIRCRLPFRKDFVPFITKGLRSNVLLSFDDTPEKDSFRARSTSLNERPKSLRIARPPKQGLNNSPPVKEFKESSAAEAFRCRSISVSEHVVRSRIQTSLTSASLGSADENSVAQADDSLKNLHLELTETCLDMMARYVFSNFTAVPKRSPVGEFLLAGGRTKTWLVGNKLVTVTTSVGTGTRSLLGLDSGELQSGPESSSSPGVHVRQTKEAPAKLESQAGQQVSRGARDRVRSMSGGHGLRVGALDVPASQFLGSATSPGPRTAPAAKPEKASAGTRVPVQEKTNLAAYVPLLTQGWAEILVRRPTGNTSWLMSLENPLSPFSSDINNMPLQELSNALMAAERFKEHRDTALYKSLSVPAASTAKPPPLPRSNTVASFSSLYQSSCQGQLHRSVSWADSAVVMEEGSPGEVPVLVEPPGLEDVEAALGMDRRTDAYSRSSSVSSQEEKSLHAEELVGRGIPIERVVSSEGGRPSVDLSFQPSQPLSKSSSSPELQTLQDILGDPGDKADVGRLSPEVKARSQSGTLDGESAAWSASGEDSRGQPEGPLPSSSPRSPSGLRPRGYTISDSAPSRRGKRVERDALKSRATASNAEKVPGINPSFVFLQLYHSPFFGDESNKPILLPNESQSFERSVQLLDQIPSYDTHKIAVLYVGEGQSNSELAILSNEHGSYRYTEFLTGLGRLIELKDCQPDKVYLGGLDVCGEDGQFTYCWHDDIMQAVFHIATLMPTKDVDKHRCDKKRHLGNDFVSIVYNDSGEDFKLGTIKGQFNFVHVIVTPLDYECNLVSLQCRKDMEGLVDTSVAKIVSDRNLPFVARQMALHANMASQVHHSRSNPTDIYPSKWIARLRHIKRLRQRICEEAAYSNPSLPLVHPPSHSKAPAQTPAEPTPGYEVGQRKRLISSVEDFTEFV

Substance: HA-SGK1
- phosphorylation of RXRXX(S/T) motifs on co-expression: co-expression of SGK1 with TSC2 increased the phosphorylation of RXRXX(S/T) (SEQ ID NO: 1) motifs

From patent US20180147232
